Assay results taken from EP0925358B1.

Target: human CXC Chemokine Receptor 3 (CXCR3) (human) (UniProt P49682)
Assay: cell-based or functional assay

Sequence of UniProt P49682 (P49682 whole entry, form in doubt): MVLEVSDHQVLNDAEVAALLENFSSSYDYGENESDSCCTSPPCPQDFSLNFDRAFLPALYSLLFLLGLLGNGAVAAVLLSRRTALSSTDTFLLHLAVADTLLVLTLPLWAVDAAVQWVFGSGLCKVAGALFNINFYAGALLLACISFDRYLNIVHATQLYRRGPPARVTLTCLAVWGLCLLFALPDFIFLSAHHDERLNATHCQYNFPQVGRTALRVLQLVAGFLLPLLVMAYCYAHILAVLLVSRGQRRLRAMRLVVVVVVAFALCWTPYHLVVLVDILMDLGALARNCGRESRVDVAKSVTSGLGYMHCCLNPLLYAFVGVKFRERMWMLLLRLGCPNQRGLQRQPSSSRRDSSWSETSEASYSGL

In the case of “ENA78 (epithelial-derived neutrophil-activating peptide 78) (from UniProt P42830 37-114) (ligand)”, the [Ca2+]i changes in IP-10/MigR transfectants is reported as > 100 nM.

In the case of “GCP-2 (granulocyte chemotactic protein-2) (from UniProt P80162 38-114) (ligand)”, the [Ca2+]i changes in IP-10/MigR transfectants is reported as > 100 nM.

With “GROα (from UniProt P09341 35-107) (ligand)” the [Ca2+]i changes in IP-10/MigR transfectants was > 100 nM.

“I309 (from UniProt P22362 24-96) (ligand)” was tested, and the [Ca2+]i changes in IP-10/MigR transfectants was > 100 nM.

In the case of “IL-8 (from UniProt P10145 28-99) (ligand)”, the [Ca2+]i changes in IP-10/MigR transfectants is reported as > 100 nM.

With “MCP-1 (monocyte chemotactic protein-1) (from UniProt P13500 24-99) (ligand)” the [Ca2+]i changes in IP-10/MigR transfectants was > 100 nM.

For “MCP-2 (from UniProt P80075 24-99) (ligand)”, the [Ca2+]i changes in IP-10/MigR transfectants was > 100 nM.

With “MCP-3 (from UniProt P80098 24-99) (ligand)” the [Ca2+]i changes in IP-10/MigR transfectants was > 100 nM.

In the case of “MCP-4 (from UniProt Q99616 24-98) (ligand)”, the [Ca2+]i changes in IP-10/MigR transfectants is reported as > 100 nM.

For “MIP-1α (macrophage inflammatory protein-1α) (from UniProt P10147 24-92) (ligand)”, the [Ca2+]i changes in IP-10/MigR transfectants was > 100 nM.

In the case of “MIP-1β (from UniProt P13236 24-92) (ligand)”, the [Ca2+]i changes in IP-10/MigR transfectants is reported as > 100 nM.

With “NAP-2 (neutrophil-activating protein-2) (from UniProt P02775 59-128) (ligand)” the [Ca2+]i changes in IP-10/MigR transfectants was > 100 nM.

With “PF4 (platelet factor 4) (from UniProt P02776 32-101) (ligand)” the [Ca2+]i changes in IP-10/MigR transfectants was > 100 nM.

In the case of “RANTES (regulated on activation, normal T cell expressed and secreted) (from UniProt P13501 24-91) (ligand)”, the [Ca2+]i changes in IP-10/MigR transfectants is reported as > 100 nM.

With “eotaxin (from UniProt P51671 24-97) (ligand)” the [Ca2+]i changes in IP-10/MigR transfectants was > 100 nM.

For “lymphotactin (from UniProt P47992 22-114) (ligand)”, the [Ca2+]i changes in IP-10/MigR transfectants was > 100 nM.
